{
  "source": "patent CN111848800A",
  "about": "(SANYOU BIOPHARMACEUTICALS CO LTD, dated 2020)",
  "binders": {"B1": {"name": "KN035 (Fc fusion)", "chain": "QVQLVESGGGLVQPGGSLRLSCAASGFTFSRRCKAWFRQAPGKERERVAKILTTSGSTYLADSVKGRFTISRDNSKNTVYLQMNSLRAEDTAVYYCAADSFEDPTCTLVTSSGAFQYWGQGTLVTVSS", "notes": "Control antibody made from the synthesised whole gene in ExpiCHO; the molecule is detected with anti-human IgG Fc; also called KN035(对照); 对照抗体KN035"}},
  "key": {"人PD-L1 (全长蛋白, on cells) [1]": {"molecular_target": "T1, 人PD-L1 (全长蛋白, on cells) (human, UniProt Q9NZQ7 19-290)", "T1 construct": "whole, on cells; also called 人PD-L1-CHO; PD-L1-CHO", "T1 sequence (Q9NZQ7 19-290)": "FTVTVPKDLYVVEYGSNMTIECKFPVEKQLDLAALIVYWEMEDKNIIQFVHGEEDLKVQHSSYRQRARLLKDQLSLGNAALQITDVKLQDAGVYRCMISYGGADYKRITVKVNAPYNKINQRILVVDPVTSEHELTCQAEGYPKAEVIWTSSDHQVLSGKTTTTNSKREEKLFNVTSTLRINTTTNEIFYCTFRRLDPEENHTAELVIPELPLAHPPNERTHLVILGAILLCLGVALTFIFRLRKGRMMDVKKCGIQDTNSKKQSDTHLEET", "assay": "FACS on human PD-L1-CHO cells, PE anti-human IgG Fc"}, "人PD-L1 (全长蛋白, on cells) [2]": {"molecular_target": "T1, 人PD-L1 (全长蛋白, on cells)", "assay": "FACS competition on human PD-L1-CHO cells against biotin CD80 (1 μg/mL)"}, "[3]": {"molecular_target": "T2, B7-H3 recombinant protein (义翘神州 11188-H08H) (UniProt Q5ZPR3 29-461)", "T2 sequence (looked up)": "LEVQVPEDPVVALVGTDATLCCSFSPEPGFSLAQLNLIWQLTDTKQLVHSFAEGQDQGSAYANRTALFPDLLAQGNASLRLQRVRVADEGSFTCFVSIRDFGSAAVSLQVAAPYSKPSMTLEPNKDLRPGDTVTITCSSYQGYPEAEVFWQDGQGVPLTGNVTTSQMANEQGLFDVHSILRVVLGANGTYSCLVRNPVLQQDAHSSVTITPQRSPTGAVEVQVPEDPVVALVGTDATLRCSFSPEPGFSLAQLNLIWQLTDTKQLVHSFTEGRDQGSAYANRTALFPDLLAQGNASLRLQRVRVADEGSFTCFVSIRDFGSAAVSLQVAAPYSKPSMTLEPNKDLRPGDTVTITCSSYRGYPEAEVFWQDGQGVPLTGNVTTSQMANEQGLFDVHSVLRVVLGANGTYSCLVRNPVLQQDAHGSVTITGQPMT", "assay": "ELISA, protein coated at 2 μg/mL, anti-human IgG Fc-HRP; N/A means 未检出结合活性"}, "[4]": {"molecular_target": "T3, B7-H2 recombinant protein (义翘神州 11559-H08H) (UniProt O75144 19-258)", "T3 sequence (looked up)": "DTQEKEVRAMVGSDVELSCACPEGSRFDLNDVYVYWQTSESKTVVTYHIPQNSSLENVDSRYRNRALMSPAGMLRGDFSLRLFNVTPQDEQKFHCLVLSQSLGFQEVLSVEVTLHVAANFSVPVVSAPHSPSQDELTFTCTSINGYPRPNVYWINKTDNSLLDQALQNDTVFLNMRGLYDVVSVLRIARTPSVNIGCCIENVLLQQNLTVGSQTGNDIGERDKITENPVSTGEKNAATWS", "assay": "ELISA, protein coated at 2 μg/mL, anti-human IgG Fc-HRP; N/A means 未检出结合活性"}, "[5]": {"molecular_target": "T4, B7-H4 recombinant protein (义翘神州 10738-H08H) (UniProt Q7Z7D3 25-258)", "T4 sequence (looked up)": "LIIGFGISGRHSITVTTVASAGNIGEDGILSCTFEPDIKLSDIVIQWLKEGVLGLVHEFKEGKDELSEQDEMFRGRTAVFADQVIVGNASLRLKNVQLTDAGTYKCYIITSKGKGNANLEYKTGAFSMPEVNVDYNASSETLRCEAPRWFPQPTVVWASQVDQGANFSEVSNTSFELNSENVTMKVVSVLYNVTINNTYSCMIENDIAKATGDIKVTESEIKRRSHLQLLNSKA", "assay": "ELISA, protein coated at 2 μg/mL, anti-human IgG Fc-HRP; N/A means 未检出结合活性"}, "[6]": {"molecular_target": "T5, B7-DC recombinant protein (义翘神州 10292-H08H-B) (UniProt Q9BQ51 20-219)", "T5 sequence (looked up)": "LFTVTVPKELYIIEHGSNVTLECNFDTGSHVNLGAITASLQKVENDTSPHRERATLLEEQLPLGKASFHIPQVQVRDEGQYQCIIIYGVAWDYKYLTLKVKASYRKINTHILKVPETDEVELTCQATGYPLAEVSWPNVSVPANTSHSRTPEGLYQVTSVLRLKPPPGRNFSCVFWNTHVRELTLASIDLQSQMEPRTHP", "assay": "ELISA, protein coated at 2 μg/mL, anti-human IgG Fc-HRP; N/A means 未检出结合活性"}, "人PD-L1 (全长蛋白, on cells) [7]": {"molecular_target": "T1, 人PD-L1 (全长蛋白, on cells)", "assay": "FACS competition on human PD-L1-CHO cells against biotin PD-1-Fc (1 μg/mL)"}, "[8]": {"molecular_target": "T6, 恒河猴PD-L1 (全长蛋白, on CHO-s cells) (rhesus monkey, UniProt F6VEW6 19-290)", "T6 construct": "whole, on cells; also called 猴PD-L1-CHO", "assay": "FACS on monkey PD-L1-CHO cells"}, "[9]": {"molecular_target": "T7, 鼠PD-L1 (全长蛋白, on CHO-s cells) (mouse, UniProt Q9EP73 19-290)", "T7 construct": "whole, on cells; also called 小鼠PD-L1-CHO; 鼠PD-L1-CHO", "T7 sequence (Q9EP73 19-290)": "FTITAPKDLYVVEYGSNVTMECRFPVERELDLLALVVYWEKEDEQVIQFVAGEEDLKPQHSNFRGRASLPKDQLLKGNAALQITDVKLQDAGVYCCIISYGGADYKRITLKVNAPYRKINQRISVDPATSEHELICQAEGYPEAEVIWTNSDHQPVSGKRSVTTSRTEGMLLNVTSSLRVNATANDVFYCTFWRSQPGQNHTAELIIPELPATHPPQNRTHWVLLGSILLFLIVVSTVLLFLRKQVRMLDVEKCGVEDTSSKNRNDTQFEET", "assay": "FACS on mouse PD-L1-CHO cells, PE anti-human IgG Fc"}},
  "data": [
    {"binder": "B1", "values": [
      {"measurement": "EC50", "setting": "人PD-L1 (全长蛋白, on cells) [1]", "result": 0.39, "unit": "µg/mL"},
      {"measurement": "IC50", "setting": "人PD-L1 (全长蛋白, on cells) [2]", "result": 0.631, "unit": "µg/mL"},
      {"measurement": "binding result", "setting": "[3]", "result": "no binding"},
      {"measurement": "binding result", "setting": "[4]", "result": "no binding"},
      {"measurement": "binding result", "setting": "[5]", "result": "no binding"},
      {"measurement": "binding result", "setting": "[6]", "result": "no binding"},
      {"measurement": "IC50", "setting": "人PD-L1 (全长蛋白, on cells) [7]", "result": 0.39, "unit": "µg/mL"},
      {"measurement": "EC50", "setting": "[8]", "result": 0.21, "unit": "µg/mL"},
      {"measurement": "binding result", "setting": "[9]", "result": "no binding (tested: 20μg/mL)"}
    ]}
  ]
}
